Measurements published in US20190241648A1 (STATEN BIOTECHNOLOGY B V, published 2019).
Where a chain is given by its changes, count along the chain named. Each block holds one binder with its values, some of them ahead of it.

Experiments:
[1] = target: T1, human ApoC3 (huApoC3), native protein purified from human serum (human, UniProt P02656 21-99); assay: cell-based or functional assay
[2] = target: T1, human ApoC3 (huApoC3), native protein …; assay: SPR Biacore, huApoC3 on chip, scFv-Fc as analyte
Method: This example describes characterization of anti-ApoC3 antibodies regarding their affinity to ApoC3 under neutral conditions using an SPR-based assay using a Biacore 3000 instrument (Biacore AB). Native huApoC3 protein was immobilized on a CM5 chip. The immobilization was performed in accordance with the method provided by Biacore using the NHS/EDC kit (Biacore AB): after activation of the chip, a solution of 60 μg/ml of human ApoC3 in 10 mM acetate buffer with pH of 4.5 was prepared and injected until the surface density reached approximately 1000 RU. Capturing of the human ApoC3 on the streptavidin coated chip (SA) was performed at pH 7.4 in accordance with a method provided by Biacore via injection of 20 μl 10 μg/ml biotinylated human ApoC3 thereby reaching the surface density of approximately 500 RU. […] After the dissociation, the flow cell surfaces were regenerated by injecting 10 μl of 10 mM […]/1 M NaCl and 10 μl of 10 mM glycine at pH1.5. The resulting sensorgrams were analyzed using the BIAevaluation 4.1 software using Langmuir 1:1 binding model to derive binding kinetics. Data was zero adjusted and the reference cell sensorgrams were subtracted.
A number of scFv-Fc antibodies were examined in this assay. The association rate (ka), dissociation rate (kd), analyte binding capacity (Rmax), equilibrium association constant (KA) and equilibrium dissociation constant (KD) of these antibodies are shown in Table 5.

[3] = target: cynomologus monkey ApoC3 (cynoApoC3), native protein (Macaca fascicularis (cynomologus monkey), UniProt P18659 21-99); assay: SPR (Biacore 3000), antibody IgG1 amine-coupled to a CM5 chip, native ApoC3 injected, HBS-EP pH 7.4
Method: The SPR experiments were carried out using a Biacore 3000 instrument (GE Healthcare). Flow cells of CM5 sensor chips were coupled with the generated IgG formatted antibodies of 14C7, 5A7, 5E5 and 6A6 (˜2000 RU) using the amine coupling chemistry. The coupling was performed using the adaptive immobilization Biacore protocol aiming 2000 RU as coating density, using 10 μg/ml antibody solutions in 10 mM sodium acetate buffer at pH 5.0. For all experiments the HBS-EP buffer at pH 7.4 was used as running and dilution buffer. 60 μl of human native ApoC3 or cynomologus monkey native ApoC3 protein preparations in the concentration range of 10 to 200 μg/ml were injected over all flow channels, followed by an off-rate wash at pH7.4 for 5 min. All injections were performed at a constant flow rate of 30 μl/min at 25° C. After the dissociation, the flow cell surfaces were regenerated by injecting 10 μl of 10 mM NaOH/1 M NaCl and 10 μl of 10 mM glycine at pH1.5. The resulting sensorgrams after blank channel subtraction were used to confirm cross-species reactivity and to evaluate affinity.

T1 sequence (P02656 21-99): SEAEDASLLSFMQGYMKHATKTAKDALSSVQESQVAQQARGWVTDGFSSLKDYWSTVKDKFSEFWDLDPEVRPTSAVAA
Sequence of cynomologus monkey ApoC3 (cynoApoC3), native protein (P18659 21-99 limits assumed): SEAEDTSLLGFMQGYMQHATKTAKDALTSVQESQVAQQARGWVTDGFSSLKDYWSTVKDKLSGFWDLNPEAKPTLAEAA

B1: 14C4 scFv-Fc (Fc fusion)
VH: QLQLVESGGGLVQPGGSLRLSCAASGFTFGNYDMSWVRQAPGKGPEWVSVINSDGDGTYYVDSVKGRFTISRDNAKNTLYLQMNSLKPEDRAVYYCAIANLGLWGQGTLVTVSS
VL: ATMLTQSPGSLSVVPGESASISCKATQSLVHSDGKTYLSWLLQKPGQSPQRLIYQVSNRGSGVPDRFTGSGSGTDFTLKISGVKAEDAGVYYCAQAPYWTFGQGTKLEIK
- attenuation of the ability of ApoC3 to inhibit VLDL uptake by HepG2 cells [1]: ~60%

B6: 8F4 scFv-Fc (Fc fusion)
VH: QLQLVESGGGLVQPGGSLRLSCAASGFAFSSYSMYWVRQAPGKGLERVAAIKTDGGSTNYADSVKGRFTVSRDNAKNTLYLQMNSLKSEDTAVYYCVIQGYGTWGQGTQVTVSS
VL: DLVLTQIPGSLSVVPGESASISCKASQSLVHSDGKTYLYWLLQKPGQSPQRLIYQVSNRGSGVPDRFTGSGSGTDFTLKISGVEAEDAGVYYCAQATYYGHSFGSGTRLEIK
notes: scFv-Fc format
- attenuation of the ability of ApoC3 to inhibit VLDL uptake by HepG2 cells [1]: ~75%
- Ka [2]: 1.72e+09 M⁻¹
- Kd [2]: 0.581 nM
- koff [2]: 9.44e-05 s⁻¹
- kon [2]: 163000 M⁻¹ s⁻¹

B7: 8H4 scFv-Fc (Fc fusion)
VH: ELQLVESGGGLVQPGRSLRLSCAASGFTFSSYSMRWVRQTPGKGLEWVTSINSDGGSTKYSDSVKGRFTISRDNAKNTLYLQMNNVKPEDTAIYYCAIQGYTDWGQGTQVTVSS
VL: B6 VL with L2V, I7T, A25V, G60D, E84K, A96G, Y99N, G100P, H101Y, S102T
notes: scFv-Fc format
- attenuation of the ability of ApoC3 to inhibit VLDL uptake by HepG2 cells [1]: ~70%
- Ka [2]: 2.52e+09 M⁻¹
- Kd [2]: 0.397 nM
- koff [2]: 7.44e-05 s⁻¹
- kon [2]: 187000 M⁻¹ s⁻¹

B8: 8A4 scFv-Fc (Fc fusion)
VH: QVQLVESGGGLVQPGGSLKVSCTASGFTFNNYAMRWVRQAEGKGLEWVSSIDSGGDRTKYGDSVKGRFSISRDNAKNTVYLQMDALKPEDTGVYYCVSQGYIFWGQGAQVTVSS
VL: ATMLTQSPGSLSVVPGESASISCKASQSLVHSDGKTYLYWLLQKPGQRPQLLIYQVSNHESGVPDRFTGSGSGTDYTLKISGVKAEDAGVYYCAQATYYPLTFGQGTKVELK
notes: scFv-Fc format
- attenuation of the ability of ApoC3 to inhibit VLDL uptake by HepG2 cells [1]: ~40%
- Ka [2]: 4.27e+09 M⁻¹
- Kd [2]: 0.234 nM
- koff [2]: 7.02e-05 s⁻¹
- kon [2]: 300000 M⁻¹ s⁻¹

B13: 6A6 scFv-Fc (Fc fusion)
VH: EVQLVESGGGLVQPGGSLRLSCAASGFTFSSYAGRWVRQVPGKGLEWVSSINAGGGSTSYADSVKGRFTISRDNAKNTLYLQMNSLKPEDTAKYYCTQNSYRYWGQGTRVAVSS
VL: DVVLTQTPGSLSVVPGESASISCKASQSLIHTDGKTYLYWLLQKPGQRPQLLIYQVSSHESGVPDRFTGSGSGTDFTLKISGVKAEDAGVYYCAQATYNPRTFGQGTKLEIK
notes: scFv-Fc format
- attenuation of the ability of ApoC3 to inhibit VLDL uptake by HepG2 cells [1]: ~75%
- Ka [2]: 6.41e+09 M⁻¹
- Kd [2]: 0.156 nM
- koff [2]: 0.000186 s⁻¹
- kon [2]: 1.19e+06 M⁻¹ s⁻¹

B14: 5A4 scFv-Fc (Fc fusion)
VH: QLQLVESGGGLVQPGGSLRLSCVASGFAFSHYTMYWVRQAPVRGLERVSAISGGGDRTIYTDSVKGRFTISRDNAANALYLQMNSLQPEDTAVYYCVAQGYEYWGQGTRVTVSS
VL: ATMLTQSPGSLSVVPGESASISCKAIQSLVHTDGKTYLYWFLQKPGQSPQRLIYQVSNRGSGVPDRFTGSGSGTDFTLKISGVKAEDAGVYYCAQGTYSSKTFGQGTKLEIK
notes: scFv-Fc format
- attenuation of the ability of ApoC3 to inhibit VLDL uptake by HepG2 cells [1]: ~100%
- Ka [2]: 3.02e+09 M⁻¹
- Kd [2]: 0.331 nM
- koff [2]: 0.000351 s⁻¹
- kon [2]: 1.06e+06 M⁻¹ s⁻¹

Now from value to binder:

- attenuation of the ability of ApoC3 to inhibit VLDL uptake by HepG2 cells [1]: ~70%
- Ka [2]: 2.58e+09 M⁻¹
- Kd [2]: 0.388 nM
- koff [2]: 6.64e-05 s⁻¹
- kon [2]: 171000 M⁻¹ s⁻¹
B2: 10B6 scFv-Fc (Fc fusion)
VH: EVQLVESGGGLVQPGGSLRLSCAASGFTFSSYAMRWVRQAPGKGLEWISSINIDGGSTRYTDSVQGRFTVSRDNAKNTLYLQMNNLKPEDTGIYYCTIQGYIYWGQGTQVTVSS
VL: ATMLTQSPGSLSIVPGESASISCKASQSLVHSNGVIYFYWLLQKPGQSPQRLIYQVSNRDSGVPDRFTGSGSGTDFTLKISGVKAEDAGVYYCAQGTYYPHSFGSGTRLQIK
notes: scFv-Fc format

- attenuation of the ability of ApoC3 to inhibit VLDL uptake by HepG2 cells [1]: ~100%
B3: 14C7 scFv-Fc (Fc fusion)
VH: QVQVQESGPGLVKPSQTLSLTCTVSGGSITTNSYYWSWIRQPPGKGLEWMGAIDYSGDTYYSPSLKSRTSISRDTSKNQFTLQLTSVTPEDTAVYYCVSRIPTGEYWGQGTQVTVSS
VL: QTVVTQEPSLSVSPGGTVTLTCGLNSGSVTSSNYPDWYQQTPGQAPRLLIYNTNSRHSGVPSRFSGSISGNKAALTITGAQPEDEADYYCALYMGSDSVVFGGGTHLTVL

- binding result [3]: binds
B4: 5A7 IgG1 (antibody, V domains shown)
VH: EVQVQESGPGLVKPSQTLSLTCTVSGASITNRRYAWTWIRQPPGKGLEWMGVIVYDGNTHVSPSLRSRTSISRDTSKNQFSLQLSSLTPEDTAVYYCARVLLLRDPLSLDYWGQGTQVTVSS
VL: SSALTQPPSMSGTLGKTLTISCAGTSSDIGAYNFVSWYQQLPGTAPKLLIYDIDKRASGIPDRFSGSKSGNTASLSISGLQSEDEADYYCAAYGSRDNVVFGGGTHLTVL
notes: IgG1 format

- attenuation of the ability of ApoC3 to inhibit VLDL uptake by HepG2 cells [1]: ~55%
- Ka [2]: 2.15e+09 M⁻¹
- Kd [2]: 0.465 nM
- koff [2]: 0.000668 s⁻¹
- kon [2]: 1.44e+06 M⁻¹ s⁻¹
B5: 5A11 scFv-Fc (Fc fusion)
VH: QVQVQESGPGLVKPSQTLSLTCTVSGVSITTRYYAWSWIRQPPGKGLEWMGVIAYDGSTYYSPSLKSRTSISRDTSKNQFSLQLTSVTPEDTAVYYCARVRLIEAPYEYDYWGQGTQVTVSS
VL: QAVVTQEPSLSVSPGGTVTLTCGLSSGSVTTRSYPGWFQQTPGQAPRSLIHSTSSRHSGIPTRFSGSISGNKAALTITGAQPEDEADYYCALDIGSYIVFGGGTHLTVL
notes: scFv-Fc format

- EC50, attenuation of ApoC3-mediated LPL inhibition (NEFA production) [1]: > 5000 nM
B9: 5E5 IgG1 (antibody, V domains shown)
VH: QLQLVESGGGLVQPGGSLRLSCAASGFTFGTYSMRWVRQVPRKALEWVSSISTDGGGTAYRDSVKGRFTISRDNAKNTLYLQMNNLKPEDTAIYYCVIAGYSDWGQGTQVTVSS
VL: ATMLTQSPGSLSVVPGESASISCKTSQGLVHSDGKTYFYWFLQKPGQSPQQLIYQVSNRASGVPDRFTGSGSGTDFTLKISGVKAEDAGVYYCAQGTYYPHTFGSGTRLEIK

- attenuation of the ability of ApoC3 to inhibit VLDL uptake by HepG2 cells [1]: ~100%
- Ka [2]: 5.94e+08 M⁻¹
- Kd [2]: 1.68 nM
- koff [2]: 0.000437 s⁻¹
- kon [2]: 260000 M⁻¹ s⁻¹
B10: 5E5 scFv-Fc (Fc fusion)
VH: B9 VH
VL: B9 VL
notes: scFv-Fc format

- attenuation of the ability of ApoC3 to inhibit VLDL uptake by HepG2 cells [1]: ~100%
B11: 14G4 scFv-Fc (Fc fusion)
VH: QVQLVESGGGLVQPGGSLRLSCAASGFAFSRYTMNWVRQAPGKGLEWLSAISPDGGKTIDADSVKGAFASSRDNTMNTLYLDMNSLKPEDAAVYYCVAGHNMDYWGKGILVTVSS
VL: B13 VL with I30V, T32S, R48S, L51R, S58N, H59Q, E60G, N99T, K108T, I111V

- EC50, attenuation of ApoC3-mediated LPL inhibition (NEFA production) [1]: > 5000 nM
- binding result [3]: binds
B12: 6A6 IgG1 (antibody, V domains shown)
VH: B13 VH
VL: B13 VL
notes: IgG1 format
